The series can be described thus: yeast display, Sf9 membrane polyspecificity reagent, FACS + sequencing; frameworks hold sequencing errors. In outline: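 Galactose induction of a Saccharomyces cerevisiae BJ5465 synthetic nanobody display library ran 36–48 hours. The cells were then stained for 1 hour at 4 °C with 10% biotinylated, detergent-solubilized Sf9 membrane reagent, pulled down on streptavidin microbeads and FACS-sorted into low and high (top ~1%) gates on expression and reagent-binding fluorescence. Labels for polyreactivity follow the gate of origin.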
Take “QVQLVESGGGLVQAGGSLRLSCAASGSTFRRYTMGWYRQAPGKERELVAAITWSGGSTYYADSVKGRFTISRDNAKNTVYLQMNSLKPEDTAVYYCAADRPYHTREYYYWGQGTQVNVSS”: the “polyreactivity (PSR sort gate)” value was “low polyreactivity”.

For the sequence “QVQLVESGGGIVQAGGSLRLSCAASGFTFKKYAMGWYRQAPGKERELVAAISRSGGRTYYADSVKGRFTISRDNAKNTVFLQMNSLKPEDTAVYYCNADYYSAAYYYWGQGTQVTVSS”, the “polyreactivity (PSR sort gate)” value is recorded as “high polyreactivity”.

With “QVQLVESGGGLVQAGGSLRLSCAASGGIFSKNVMGWYRQAPGKERELVAAISRGGTTSYADSVKGRFTISRDNAKNTVYLQMNSLKPEDTAVYFCAAKYWWYPYFTVDYDYWGQGTQVTVSS”, the “polyreactivity (PSR sort gate)” value is given as “high polyreactivity”.

“QVQLVESGGGLVQAGGSLRLSCAASGRIFGYYAMGWYRQAPGQERELVAAITRNGGSTYYADSVKGRFTISRDNAKNTVYLQMTSLKPEDTAVYYCAATKGGGRGYWGQGTQVTVSS”: the “polyreactivity (PSR sort gate)” value is on record as “high polyreactivity”.

On to “QVQLVESGGGLVQAGGSLRLSCAGSGFILGYNAMGWYRQAPGKERELVAVIDSIGDGTYYADSVKGRFTISRDNAKNTVYLQMISLKPEDTAVYYCDVDDYYEMDYWGQGTQVTVSS”, for which the “polyreactivity (PSR sort gate)” value was “low polyreactivity”.

For “QVQLVESGGVLDQAGGSLRLSFAASGFTFGAYAMGWYRHAPGKETELVASISWSGGSTYYADSVKGRFTISRDNAKNPVYLQMNSVKPEDTAVYYCNKDFVYPEDDGLFDFWGQGTQVTVSS”, the “polyreactivity (PSR sort gate)” value was “low polyreactivity”.

Consider “QVQLVESGGGLVQAGGSLRLSCAASGITFYWNDMGWYRQATGKERELVAAIRRTAGSTYYADSVKGRFTISRDNAKNTVYLQMNSLKPEDTAVYYCAASRHFARHRGYYFRYDYWGQGTQVTVSS”, for which the “polyreactivity (PSR sort gate)” value is reported as “high polyreactivity”.

Consider “QVQLVESGGGIVQAGGSLRLSCAASGSIVGQYAMGWYRQPPGKERELVAAITSGGRTNYADSVTGRFTISRDNAKNTVYVQMNRLKPEDTAVYYCAARGWVWYYWGQGTQVTVSS”, for which the “polyreactivity (PSR sort gate)” value is on record as “high polyreactivity”.

In the case of “QVHLVESGGGLVQAGGSLRLSCAASGFTFIRNGMGSYRQAPGKERELVAAINSRGGNTYYADSVKGRFTISRDNAKNTVYLQMNSLKPEDTAVYYCNRVVQRWSTQYGYWGQGTQVTVSS”, the “polyreactivity (PSR sort gate)” value was “high polyreactivity”.

As to “QVQLVESGGGLVQAGGSLRLSCAASGSIFLYNAMRWYRQAPGKERELVAAKSYSGASTYYADSVKGRFTISRDNAKNTVYLQMNSLKAEDTAVYYCAKTFRYKWPYGTPKYDYWGQGTQVTVSS”, the “polyreactivity (PSR sort gate)” value is recorded as “high polyreactivity”.

Turning to “QVQLVESGGGLVQAGGSLRLSCAASGNTFYSYAMGWYRQAPGKERELVAAITWGGRTKYADSVKGRFTISRDNAKNTVYLQMNSLKPEDTAVYYCAARLYHGKTKYDYWGQGTQVTVSS”, the “polyreactivity (PSR sort gate)” value is reported as “high polyreactivity”.

“QVHLVESGGGLVEAVGSLRLSCAASGRIFARYAMGCYRQAPGKERQLVATITRVGSTNYADSVKRPFTISRDNAKTTVYLQMNSLKPEDTEGFYCNADIRRNGGYAHEYWVQGTQVTVSS”: the “polyreactivity (PSR sort gate)” value is on record as “low polyreactivity”.

Turning to “QVQLVESGGGLVQAGGSLRLSCAASGRTFRPYAMGWYRQAPGKERELVAAITSGVSTYYADSVKGRFTISRDNAKNTVYLQMNSLKPEDTAVYYCNKVISREVGIRMDYWGQGTQVTVSS”, the “polyreactivity (PSR sort gate)” value is on record as “high polyreactivity”.

Turning to “QVQLVESGGGLVQAGGSLRLSCAASGRTFLIYAMGWYRQAPGKERELVAAITSGGRTKYADSVKGRFTISRDNAKNTVYLQMNSLKPEDTAVYYCAARTGVYRYSRKFYYWGQGTQVTVSS”, the “polyreactivity (PSR sort gate)” value was “high polyreactivity”.

Turning to “QVQLVESGGGLVQAGGSLRLSCAASGSTLGYYAMGWYRQAPGKERELVAAITSSDGGTYYADSVKGRFTISRDNAKNTVYLQMNSLKPEDTAVYYCAKRRYTSAFGSWYAYDYWGQGTQVNVSS”, the “polyreactivity (PSR sort gate)” value is recorded as “high polyreactivity”.

For “QVQLVESGGGLVQAGGSLRLSCAASGSILEPYAMGWYRQAPGKERELVATIRRGGSTYYADSVKGRFTISRDNAKNTVYLQMNSLKPEDTAVYYCAADRSVQVTFDYWGQGTQVTVSS”, the “polyreactivity (PSR sort gate)” value is on record as “low polyreactivity”.

For “QGQLLESGGGLVQAGGSLRLSCAASRFNFRFYAIGWYRQAPGKERELVASITQGGSTYYADSVKGSFTISRDNAKNTVYLQMNSLKPVDTAVYSCAARYLGGRRSGDYSRYYWGQGTQVSVSS”, the “polyreactivity (PSR sort gate)” value is listed as “high polyreactivity”.

Turning to “QVQLVESGGGLVQAGGSLRLICAASGRIFRQNAMGWYRQEPGKERELVASISSGGNTYYADSVKGRFTISRDNAKNTVYLEMNSLKPEDTAVYYCAAAKQRYYRWWTTPGYDYWGQGTQVTVSS”, the “polyreactivity (PSR sort gate)” value was “low polyreactivity”.

With “QVQLVDSGGVLVQAGGSLRLICAASGNTFAYYTLGWYRQAPGKEMELVAAIDYSGGSTYYADSVKGRFTISRDNAKNTVYLQMNSLKPEDTAVYYCASDYRWHFSESLGWFYEYGYWGQGTQVTVSS”, the “polyreactivity (PSR sort gate)” value is on record as “low polyreactivity”.

Take “QVQLVESGGGLVQAGGRLRLSCAASGRIFDYNAMGWNRQAPWKERELVAAIRTSGGSTYYADSVKGRFTISRDNAKNTVYLPMISLKPEDNAVYYCAATSRRYRVRYDSWGQGTQVTVSS”: the “polyreactivity (PSR sort gate)” value is “high polyreactivity”.

With “QVQLVESGGGLVQAGGSLRLSCAASGRTFYSYAMGWYRQAPGKERELVATIRRGGRTNYADSVKGRFTISRDNAKNTVYLQMNSLKPEDTAVYYCAAEDYLSWVTSTYDYWGQGTQVAVSS”, the “polyreactivity (PSR sort gate)” value is recorded as “low polyreactivity”.

Regarding “QVQLVESGGGLVQAGGSLRLSCAASGFIFSWYAMGWYRQAPGKERELVAAITSGGSTYYADSVKGRFTISRDNAKNTFYLQMNSLKPEDTAVYYCGTVVTYRYAFPYGYWGQGTQVTVSS”, the “polyreactivity (PSR sort gate)” value is “high polyreactivity”.

With “QVQLVESGGGLVQAGGSLRLSCAASGSTFCFNDMGWYIQAPGKEREFVAAISSIGGSTYYADSVKGRFKISRDNAKNTLYLQMNSLKPEDTAVYYCAVEVVRVYRYDYWGQGTQVTVSS”, the “polyreactivity (PSR sort gate)” value is “low polyreactivity”.

On to “QVQLVESGGGLVQAGGSLRLSCAASGLIFRYNAMGWSRQAPGKERELVAAISRSGGTTYYADSVKGRFTISRDNAKNTVYLQMNSLKPEDTAVYYCATRISQSYYNYGYWGQGTQVTVSS”, for which the “polyreactivity (PSR sort gate)” value is “high polyreactivity”.

“QVQLVESGGGLVQAGGTLRLSCAASGSIFYYYAMGWYRQAPGKERELVDTISSSSGSTYYADSVKGRFTISRDNAKNTVYLQMISLKPEDTAVYYCAAPLPHRGYYEGYWGQRTQVTVSS”: the “polyreactivity (PSR sort gate)” value is recorded as “low polyreactivity”.

Turning to “QVQLVESGGGLVQAGGSLRLSCAASGFISDWYAMGWFRQAPGKERELVATIDWLGGSTYAHSVKGRFTISRDNAKNTVYLQMNSLKPEDTAVYYCAADSYFIAWYGAPYAYDYWGQGTQVTVSS”, the “polyreactivity (PSR sort gate)” value is on record as “low polyreactivity”.

With “QVQLVESGGGLVQAGGSLRLSCAASGSIFRFYAMGWYRQATGKEREFVASITGTGGSTYYADSVKGRFTISRDNAKNTVYLQMNSLKPEDTAVYYCNARPYGWYDTYRLYGYWGQGTQVTVSS”, the “polyreactivity (PSR sort gate)” value is given as “high polyreactivity”.

As to “QVQLVESGGGLVQSGGSLRLSCAASGSIFGYYAMGWYRRAPGKERELVAAISVSGGSTYYADSVKGRFTISRDNAKNTVYLLMNSLKPEDTAVYYCNKVQGSWRVPYYYWGQGTQVTVSS”, the “polyreactivity (PSR sort gate)” value is on record as “high polyreactivity”.

Turning to “QVQLVESGGGLVQAGGSLRISCAASGSIFRPNAMGRYRQAPGKERELVAAINTSDDSTYYADSVKGRFTISRDNAKNTVYLQMNSLKQEDTAVYYCAAEYYAYPYGDYYDYWGQGTQVTVSS”, the “polyreactivity (PSR sort gate)” value was “low polyreactivity”.

Regarding “QVQLVESGGGLVQAGGSLRLSCAASGTFDYYDMGWYRQAPGKERELVAGITSGGSTDYADSVKGRFTISRDNAKNTVYLQMNSLKPEDTAVYYCAADPFRIHTYDYWGQGTQVTVSS”, the “polyreactivity (PSR sort gate)” value was “low polyreactivity”.

Consider “QVQLVESGGGLVQAGGSLRLSCAASGSTFGPYVMGGYRQAPGKERELVAVISGGSTDYADSVKGRFTISRDNAKNTVYLQMNSLKPEDTAVYYCNAEYYFYLSPTVYLYDYWGQGTQVTVSS”, for which the “polyreactivity (PSR sort gate)” value is “high polyreactivity”.

Take “QVQLQESGGGLVQAGGSLRPRCAAGGTIFVSVNMGWYRHAPGEELEFVASITQGATTNYADSLIGRFTISRDNAKNTVYLQMNCQNQEDTAVYYCAVHESGGITFTYWGQGTQVTVSS”: the “polyreactivity (PSR sort gate)” value is on record as “high polyreactivity”.

In the case of “QVQLVESGGGLVQAGGSLRLSCAASGSMFVVYAMGWYRQGPGKERELVAAISWGIGSTYYADSVKGRFTISRDNAKNTVYLQMNSLKPEDTADYYCAADTDIVLYDYWGQGTQVTVSS”, the “polyreactivity (PSR sort gate)” value is on record as “low polyreactivity”.

“QVQLVESGGGLVQAGGSLRLSCAASGSTFSFNAMGWYRQAPGKERELVAAISRSGGRTYYADSVKGRFTISRDNAKNTVYLQMNSLKPEDTAVYYCNKVWFQRSVQPVEYDYWGQGTQVTVSS”: the “polyreactivity (PSR sort gate)” value was “high polyreactivity”.

Consider “QVQLVESGGGLVQAGGSLRLSCAASGSTFWHYAMGWYRQAPGKERELVASISGRGTSTYYADSVKGRFTLSRDNAKNTVYLQMNSLKPEDTAVYYCAATKWYRAFDYWGQGTQVTVSS”, for which the “polyreactivity (PSR sort gate)” value is listed as “low polyreactivity”.

Regarding “QVQLVESGGGLVQAGGSLRLSCAASGSIFPYYAMGWSRQAPGKERELVASINQSDGTTYYADSVKGRFTISRDNAKNTVYLQMNSLKPEDTAVYYCAAAYFYWRVDKYYYWGQGTQVTVSS”, the “polyreactivity (PSR sort gate)” value is “low polyreactivity”.

For the sequence “QVQLVESGGGLVQAGGSLRLSCAASGFTFYRYAMGWYRHAPGKERELVAAITRSGSRTYYADSVKGRFTISRDNAKNTVYLQMNSLKPEDTAVYYFNTDGGDHPTARYGYWGQVTQVTVSS”, the “polyreactivity (PSR sort gate)” value is on record as “high polyreactivity”.

For the sequence “QVQLVESGGGLVQAGGSLRLSCAASGSIFIFNTMGWYRQAPGKETELVASISSSGSTYYADSVKGRFTISRANAKNTVYLQMNSLKPEDTAVYYCAADAEDRPSWPGNSEYEYWGQGTQVTVSS”, the “polyreactivity (PSR sort gate)” value is reported as “low polyreactivity”.

As to “QVQLVESGVGLVQAGGSLRLSCAASGRIFYRNAMGWYRQAPGKERELVAAISYSGGRTYYADSVKGRFTISRDNAKNTVYLQMNSLKPEDTAVYYCAARYAWGYVDPGDYWGQGTQVTVSS”, the “polyreactivity (PSR sort gate)” value was “high polyreactivity”.

As for “QVQLVESGGGLVQAGGSLRLSCAASGLTFTTYAMGWSRQAPGKERELVAAISRRGSRTYYADSVKGRFTISRDNAKNTVYLQMNSLKPEDTAVYYCNALTGSFKTYSFDYWGQGTQVTVSS”, the “polyreactivity (PSR sort gate)” value is listed as “high polyreactivity”.

“QVQLVESGGGLVQAGGSLRLSCAASGSTLTFNAMGWYRQAPWKERELVAAISWSDTDTYYADSVKGRFTISRDNAKNTVYLQINSLKPEDTAVYYCAATLSAYEMDYWGQGTQVTVSS”: the “polyreactivity (PSR sort gate)” value is reported as “low polyreactivity”.

Values taken from the nanobody polyreactivity screen of Harvey et al. (2022).
